Legend:
Test in all cases: cell-based or functional assay
[1] = target: HIV-1 MGRM-AE-005 Env (HIV-1)
[2] = target: HIV-1 MGRM-A-012 Env (HIV-1)
[3] = target: HIV-1 MGRM-A-009 Env (HIV-1)
[4] = target: HIV-1 92UG037 Env (HIV-1)
[5] = target: HIV-1 MGRM-AG-005 Env (HIV-1)
[6] = target: HIV-1 VLGCA1 Env (HIV-1)
[7] = target: HIV-1 92WR009 Env (HIV-1)
[8] = target: HIV-1 MGRM-A-003 Env (HIV-1)
[9] = target: HIV-1 MGRM-A-008 Env (HIV-1)
[10] = target: HIV-1 MGRM-A-006 Env (HIV-1)
[11] = target: HIV-1 MGRM-AG-011 Env (HIV-1)
[12] = target: HIV-1 MGRM-A-002 Env (HIV-1)
[13] = target: HIV-1 92TH021 Env (HIV-1)
[14] = target: HIV-1 MGRM-AG-006 Env (HIV-1)
[15] = target: HIV-1 MGRM-AE-007 Env (HIV-1)
[16] = target: HIV-1 MGRM-A-014 Env (HIV-1)
[17] = target: HIV-1 MGRM-AG-002 Env (HIV-1)
[18] = target: HIV-1 MGRM-AG-009 Env (HIV-1)
[19] = target: HIV-1 MGRM-AE-003 Env (HIV-1)
[20] = target: HIV-1 MGRM-AG-012 Env (HIV-1)
[21] = target: HIV-1 MGRM-A-005 Env (HIV-1)
[22] = target: HIV-1 MGRM-A-013 Env (HIV-1)
[23] = target: HIV-1 MGRM-AE-001 Env (HIV-1)
[24] = target: HIV-1 93WR029 Env (HIV-1)
[25] = target: HIV-1 92UG031 Env (HIV-1)
[26] = target: HIV-1 92WR021 Env (HIV-1)
[27] = target: HIV-1 MGRM-A-004 Env (HIV-1)
[28] = target: HIV-1 MGRM-AE-008 Env (HIV-1)
[29] = target: HIV-1 MGRM-AG-001 Env (HIV-1)
[30] = target: HIV-1 94UG103 Env (HIV-1)
[31] = target: HIV-1 92WR024 Env (HIV-1)
[32] = target: HIV-1 CMU02 Env (HIV-1)
[33] = target: HIV-1 MGRM-A-001 Env (HIV-1)
[34] = target: HIV-1 MGRM-A-010 Env (HIV-1)
[35] = target: HIV-1 MGRM-AE-006 Env (HIV-1)
[36] = target: HIV-1 92RW008 Env (HIV-1)
[37] = target: HIV-1 MGRM-A-007 Env (HIV-1)
[38] = target: HIV-1 MGRM-AG-003 Env (HIV-1)
[39] = target: HIV-1 MGRM-A-011 Env (HIV-1)
[40] = target: HIV-1 93UG077 Env (HIV-1)
[41] = target: HIV-1 MGRM-AE-002 Env (HIV-1)
[42] = target: HIV-1 94KE105 Env (HIV-1)
[43] = target: HIV-1 92WR020 Env (HIV-1)
[44] = target: HIV-1 MGRM-AE-004 Env (HIV-1)
[45] = target: HIV-1 MGRM-AG-008 Env (HIV-1)
[46] = target: HIV-1 92WR026 Env (HIV-1)
[47] = target: HIV-1 MGRM-AG-013 Env (HIV-1)

**Q.** Which results are given for 5141_B17 (PGT-126) (antibody)?
**A.** IC50 [1]: 0.324 µg/mL; IC50 [2]: 0.097 µg/mL; IC50 [3]: 0.004 µg/mL; IC50 [4]: 0.011 µg/mL; IC50 [5]: 1.21 µg/mL; IC50 [6]: > 50 µg/mL; IC50 [7]: > 50 µg/mL; IC50 [8]: > 50 µg/mL; IC50 [9]: > 50 µg/mL; IC50 [10]: > 50 µg/mL; IC50 [11]: 24.5 µg/mL; IC50 [12]: 0.015 µg/mL; IC50 [13]: 0.197 µg/mL; IC50 [14]: 0.01 µg/mL; IC50 [15]: > 50 µg/mL; IC50 [16]: 0.01 µg/mL; IC50 [17]: > 50 µg/mL; IC50 [18]: 0.03 µg/mL; IC50 [19]: > 50 µg/mL; IC50 [20]: > 50 µg/mL; IC50 [21]: > 50 µg/mL; IC50 [22]: 0.006 µg/mL; IC50 [23]: 9.68 µg/mL; IC50 [24]: > 50 µg/mL; IC50 [25]: > 50 µg/mL; IC50 [26]: 0.006 µg/mL; IC50 [27]: > 50 µg/mL; IC50 [28]: > 50 µg/mL; IC50 [29]: > 50 µg/mL; IC50 [30]: 0.008 µg/mL; IC50 [31]: 42 µg/mL; IC50 [32]: > 50 µg/mL; IC50 [33]: > 50 µg/mL; IC50 [34]: 0.002 µg/mL; IC50 [35]: 17.3 µg/mL; IC50 [36]: 0.008 µg/mL; IC50 [37]: > 50 µg/mL; IC50 [38]: > 50 µg/mL; IC50 [39]: > 50 µg/mL; IC50 [40]: 0.02 µg/mL; IC50 [41]: > 50 µg/mL; IC50 [42]: 0.006 µg/mL; IC50 [43]: 0.006 µg/mL; IC50 [44]: > 50 µg/mL; IC50 [45]: > 50 µg/mL; IC50 [46]: 0.008 µg/mL; IC50 [47]: 0.008 µg/mL

**Q.** For 4838_L06 (PGT-121) (antibody), which IC50 [1] is on record?
**A.** The IC50 was greater than 50 µg/mL.

**Q.** What about the IC50 [2] of the same substance?
**A.** Its IC50 is 0.092 µg/mL.

**Q.** What about the IC50 [3] of the same substance?
**A.** Its IC50 is 0.006 µg/mL.

**Q.** And the IC50 [4]?
**A.** The IC50 was 0.031 µg/mL.

**Q.** And the IC50 [6]?
**A.** The IC50 was greater than 50 µg/mL.

**Q.** And the IC50 [7]?
**A.** Its IC50 is 1.74 µg/mL.

**Q.** And the IC50 [8]?
**A.** Its IC50 is 0.435 µg/mL.

**Q.** And the IC50 [9]?
**A.** Its IC50 is greater than 50 µg/mL.

**Q.** And the IC50 [10]?
**A.** The IC50 was 0.396 µg/mL.

**Q.** What about the IC50 [11] of the same substance?
**A.** Its IC50 is greater than 50 µg/mL.

**Q.** And the IC50 [13]?
**A.** The IC50 was greater than 50 µg/mL.

**Q.** And the IC50 [15]?
**A.** Its IC50 is greater than 50 µg/mL.

**Q.** What about the IC50 [16] of the same substance?
**A.** Its IC50 is 0.003 µg/mL.

**Q.** What about the IC50 [17] of the same substance?
**A.** The IC50 was greater than 50 µg/mL.

**Q.** What about the IC50 [18] of the same substance?
**A.** The IC50 was 0.08 µg/mL.

**Q.** What about the IC50 [19] of the same substance?
**A.** Its IC50 is greater than 50 µg/mL.

**Q.** What about the IC50 [20] of the same substance?
**A.** The IC50 was greater than 50 µg/mL.

**Q.** And the IC50 [21]?
**A.** Its IC50 is greater than 50 µg/mL.

**Q.** And the IC50 [22]?
**A.** The IC50 was 0.387 µg/mL.

**Q.** What about the IC50 [23] of the same substance?
**A.** Its IC50 is greater than 50 µg/mL.

**Q.** And the IC50 [24]?
**A.** Its IC50 is greater than 50 µg/mL.

**Q.** What about the IC50 [25] of the same substance?
**A.** Its IC50 is greater than 50 µg/mL.

**Q.** What about the IC50 [26] of the same substance?
**A.** The IC50 was 0.009 µg/mL.

**Q.** What about the IC50 [27] of the same substance?
**A.** The IC50 was greater than 50 µg/mL.

**Q.** What about the IC50 [28] of the same substance?
**A.** The IC50 was greater than 50 µg/mL.

**Q.** What about the IC50 [30] of the same substance?
**A.** Its IC50 is 2.52 µg/mL.

**Q.** And the IC50 [31]?
**A.** The IC50 was greater than 50 µg/mL.

**Q.** What about the IC50 [32] of the same substance?
**A.** Its IC50 is greater than 50 µg/mL.

**Q.** What about the IC50 [33] of the same substance?
**A.** The IC50 was greater than 50 µg/mL.

**Q.** And the IC50 [34]?
**A.** Its IC50 is 2.44 µg/mL.

**Q.** And the IC50 [35]?
**A.** Its IC50 is greater than 50 µg/mL.

**Q.** What about the IC50 [36] of the same substance?
**A.** Its IC50 is 0.003 µg/mL.

**Q.** What about the IC50 [37] of the same substance?
**A.** Its IC50 is greater than 50 µg/mL.

**Q.** And the IC50 [39]?
**A.** The IC50 was greater than 50 µg/mL.

**Q.** And the IC50 [40]?
**A.** Its IC50 is 0.019 µg/mL.

**Q.** What about the IC50 [41] of the same substance?
**A.** Its IC50 is greater than 50 µg/mL.

**Q.** What about the IC50 [42] of the same substance?
**A.** The IC50 was 0.029 µg/mL.

**Q.** What about the IC50 [43] of the same substance?
**A.** The IC50 was 0.004 µg/mL.

**Q.** And the IC50 [44]?
**A.** Its IC50 is greater than 50 µg/mL.

**Q.** Which results are given for 5145_B14 (PGT-127) (antibody)?
**A.** IC50 [1]: > 50 µg/mL; IC50 [2]: 0.105 µg/mL; IC50 [3]: 0.013 µg/mL; IC50 [4]: 0.014 µg/mL; IC50 [5]: > 50 µg/mL; IC50 [6]: > 50 µg/mL; IC50 [7]: > 50 µg/mL; IC50 [8]: > 50 µg/mL; IC50 [9]: > 50 µg/mL; IC50 [10]: > 50 µg/mL; IC50 [11]: > 50 µg/mL; IC50 [12]: 9.42 µg/mL; IC50 [13]: > 50 µg/mL; IC50 [14]: 0.021 µg/mL; IC50 [15]: > 50 µg/mL; IC50 [16]: 0.24 µg/mL; IC50 [17]: > 50 µg/mL; IC50 [18]: 0.059 µg/mL; IC50 [19]: > 50 µg/mL; IC50 [20]: > 50 µg/mL; IC50 [21]: > 50 µg/mL; IC50 [22]: 0.029 µg/mL; IC50 [23]: > 50 µg/mL; IC50 [24]: > 50 µg/mL; IC50 [25]: > 50 µg/mL; IC50 [26]: 0.011 µg/mL; IC50 [27]: > 50 µg/mL; IC50 [28]: > 50 µg/mL; IC50 [29]: > 50 µg/mL; IC50 [30]: 0.017 µg/mL; IC50 [31]: > 50 µg/mL; IC50 [32]: > 50 µg/mL; IC50 [33]: > 50 µg/mL; IC50 [34]: 0.017 µg/mL; IC50 [35]: > 50 µg/mL; IC50 [36]: 0.012 µg/mL; IC50 [37]: > 50 µg/mL; IC50 [38]: > 50 µg/mL; IC50 [39]: > 50 µg/mL; IC50 [40]: 0.055 µg/mL; IC50 [41]: > 50 µg/mL; IC50 [42]: 0.023 µg/mL; IC50 [43]: 0.01 µg/mL; IC50 [44]: > 50 µg/mL; IC50 [45]: > 50 µg/mL; IC50 [46]: 0.024 µg/mL; IC50 [47]: 0.018 µg/mL

— patent US20160264649A1
